According to US20200317769A1 (published 2020):
Residue numbers refer to the chain shown, from its start. Names may count otherwise.

B1: Q62F11 (VHH, not shown: small tags and cut ends)
VHH: QVQLVESGGGLVQPGGSLRLSCAASGFSFSDYVMGWFRQAPGKEREFVGFIRWDGLVTRYADAVKGRFTISRDNARNTLSLQTIGLLAEDTAVYYCAASGGGSGPVNAGSYEYWGQGTQVTVSS
notes: Neither Family 1 nor Family 2; purified from E. coli
B2: Q65C7 (VHH, not shown: small tags and cut ends)
VHH: EVQLVESGGGLVQPGRSLRLSCTASGFDFSSHWMYWVRQAPGKGLEWVSEINTNGLITKYADFVKGRFTVSRDNAANTLYLEITRLEPEDTALYYCARNQKGLNKGQGTQVTVSS
notes: Family 1; purified from E. coli
B3: Q65D3 (VHH, not shown: small tags and cut ends)
VHH: B2 VHH with R16G, T23V, F63S, V64T, T78M, Y80N, I83M, R85S, Q100E, K101R
notes: as for B2
B4: Q65D1 (VHH, not shown: small tags and cut ends)
VHH: B2 VHH with R16G, S30D, S31N, Y35C, E82Q, E87K
notes: as for B2
B5: Q62F2 (VHH, not shown: small tags and cut ends)
VHH: B2 VHH with E1Q, R16G, T23A, S30N, K59N, A61V, F63S, I83M, R85S, E87K
notes: as for B2
B6: Q62E10 (VHH, not shown: small tags and cut ends)
VHH: QVQLVESGGGLVQPGGSLRLSCTTSGLDFGIHWMYWFRQAPGKELEWVAEINTNALITKYADSVKGRFTISRDNAKNTLFLQMNDLKSEDTAVYYCSNTQNGAAKGQGVQVTVSS
notes: Family 2; purified from E. coli
B7: Q65A3 (VHH, not shown: small tags and cut ends)
VHH: B6 VHH with Q1E, L20P
notes: as for B6
B8: Q62F10 (VHH, not shown: small tags and cut ends)
VHH: EVQLVESGGGLVQPGGSLRLSCVASGFDFNIHWMYWVRQAPGKELEWVAEINTNGLITVYPDSVKGRFTISRDNAKNTLFLQMNNLKFEDTAVYYCTNTQNGKTKGQGTQVTVSS
notes: as for B6
B9: Q65B1 (VHH, not shown: small tags and cut ends)
VHH: EVQLVESGGGLVQPGGSLKLSCAASGFDFSSHWMYWVRQAPGKELEWLSEINTNGLITKYGDSVKGRFTVSRNNAANKMYLELTRLEPEDTALYYCARNQKGLNKGQGTQVTVSS
notes: Family 1; purified from E. coli; parent of the ID series
B10: Q65E12 (VHH, not shown: small tags and cut ends)
VHH: EVQLVESGGGLVQPGGSLRLSCSASGFDFSIHWMYWVRQAPGKELEWVAEINTNGLITLYADSVKGRFTASRDNAKNALFLQMNDLKFEDTAVYYCAKSRNGAAGGQGTQVTVSS
notes: as for B6
B11: Q65F6 (VHH, not shown: small tags and cut ends)
VHH: B10 VHH with S23T, S30G, A61S, K65R, K76N, G105K
notes: as for B6
B12: ID22F (VHH)
chain: EVQLVESGGGLVQPGGSLKLSCAASGFDFSSHWMYWVRQAPGKELEWLSEINTNGLITKYGDSVKGRFTVSRNNAANKMYLELTRLEPEDTALYYCARNQKGLNKGQGTQVTVSSGGGGSGGGGSGGGGSGGGGSGGGGSGGGGSEVQLVESGGGLVQPGGSLKLSCAASGFDFSSHWMYWVRQAPGKELEWLSEINTNGLITKYGDSVKGRFTVSRNNAANKMYLELTRLEPEDTALYYCARNQKGLNKGQGTQVTVSS
B13: ID8F-EV (VHH, not shown: small tags and cut ends)
VHH: B9 VHH with K59H
B14: ID34F (VHH)
VHH: B9 VHH with K59H, K101H
B15: ID38F (VHH)
VHH: B9 VHH with E1D, K59H, K101H
notes: Q65B1 with N-terminal DVQLV, K59H and K101H; no His-tag; also called ID38F (S. cerevisiae-produced)
B16: ID13F-EV (VHH)
VHH: B9 VHH with K101H
notes: Q65B1 monomer mutant with His-tag; not shown: C-terminal His-tag (c-myc-6His or Flag-6His)
B17: ID9F-EV (VHH)
VHH: B9 VHH with K65H
notes: as for B16
B18: ID15F-EV (VHH)
VHH: B9 VHH with K101H, K105H
notes: as for B16

These binders were tested against T1, soluble human TNF-alpha (human, UniProt P01375 77-233) (assay: competition ELISA: VHH mixed with human TNF-alpha, binding to coated etanercept (TNFR2-Fc)).
T1 construct: Recombinant, bought (Invitrogen PHC3015 in some assays); also called hs-TNF-alpha; h-TNF-alpha
T1 sequence (P01375 77-233 limits assumed): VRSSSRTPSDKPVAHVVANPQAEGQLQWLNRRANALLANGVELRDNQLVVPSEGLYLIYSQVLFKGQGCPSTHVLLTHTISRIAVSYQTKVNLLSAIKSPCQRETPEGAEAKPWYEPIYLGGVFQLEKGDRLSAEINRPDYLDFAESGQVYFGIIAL
Procedure: (§1) Variable domains were diluted and mixed with either human or cynomolgus monkey TNF-alpha (1.25 ng/ml) to allow binding before adding to the ELISA plates.
B1 was tested, and the EC50 was 2.3 nM.
Binder B2 has an EC50 of 0.35 nM.
For B3, the EC50 was 0.33 nM.
Binder B4 has an EC50 of 0.37 nM.
For B5, the EC50 was 0.7 nM.
B6 showed an EC50 of 0.8 nM.
B7 gave an EC50 of 1.3 nM.
Work on B8 yielded an EC50 of 30 nM.
B9 was tested, and the EC50 was 0.29 nM.
For B10, the EC50 was 47 nM.
With B11 the EC50 was 13 nM.

The binders below were run against T1, soluble human TNF-alpha (assay: cell-based or functional assay).
With B3 the “EC50, HEK-293 NF-kB/SEAP reporter cells, human soluble TNF-alpha” value was ~0.6 nM.
For B9, the “EC50, HEK-293 NF-kB/SEAP reporter cells, human soluble TNF-alpha” value was ~0.2 nM.
With B12 the “potency relative to the monomer, soluble TNF-induced HEK293-NF-kB-SEAP reporter assay” value was ~10 fold.

Each binder was assayed against T2, soluble cynomolgus monkey TNF-alpha (cynomolgus monkey, UniProt P79337 77-233) (assay: competition ELISA: VHH mixed with cynomolgus TNF-alpha, binding to coated etanercept (TNFR2-Fc)).
T2 construct: also called Cynomolgus TNF; cyno-TNF-alpha
T2 sequence (P79337 77-233 limits assumed): as the sequence (P01375 77-233 limits assumed) above, with L37V, R44T, T72N, R138L counted along it
Procedure: as §1
B1 showed an EC50 of 1.4 nM.
With B2 the EC50 was 0.32 nM.
Binder B3 has an EC50 of 0.45 nM.
Binder B4 has an EC50 of 0.32 nM.
Binder B5 has an EC50 of 1.3 nM.
With B6 the EC50 was 1.2 nM.
With B7 the EC50 was 1.1 nM.
In the case of B8, the EC50 is reported as 108 nM.
For B9, the EC50 was 0.45 nM.
With B10 the EC50 was 65 nM.
With B11 the EC50 was 24 nM.

What follows are binders tested against T2, soluble cynomolgus monkey TNF-alpha (assay: cell-based or functional assay).
B2 was tested, and the “Inhibition of cynomolgus TNF-induced L929 cell cytotoxicity EC50” value was 0.03 nM.
For B3, the “Inhibition of cynomolgus TNF-induced L929 cell cytotoxicity EC50” value was 0.1 nM.
In the case of B4, the “Inhibition of cynomolgus TNF-induced L929 cell cytotoxicity EC50” value is reported as 0.06 nM.
B7 was tested, and the “Inhibition of cynomolgus TNF-induced L929 cell cytotoxicity EC50” value was 0.04 nM.
For B9, the “Inhibition of cynomolgus TNF-induced L929 cell cytotoxicity EC50” value was 0.01 nM.
With B10 the “Inhibition of cynomolgus TNF-induced L929 cell cytotoxicity EC50” value was 4 nM.
For B11, the “Inhibition of cynomolgus TNF-induced L929 cell cytotoxicity EC50” value was 1 nM.

Target: T1, soluble human TNF-alpha
Assay: cell-based or functional assay
Remark: another data set of the same source
With B2 the “Inhibition of human TNF-induced L929 cell cytotoxicity EC50” value was 0.15 nM.
For B3, the “Inhibition of human TNF-induced L929 cell cytotoxicity EC50” value was 0.15 nM.
B4 was tested, and the “Inhibition of human TNF-induced L929 cell cytotoxicity EC50” value was 0.1 nM.
B7 was tested, and the “Inhibition of human TNF-induced L929 cell cytotoxicity EC50” value was 0.15 nM.
With B9 the “Inhibition of human TNF-induced L929 cell cytotoxicity EC50” value was 0.04 nM.
With B10 the “Inhibition of human TNF-induced L929 cell cytotoxicity EC50” value was 4 nM.
With B11 the “Inhibition of human TNF-induced L929 cell cytotoxicity EC50” value was 1.5 nM.

Each binder was assayed against T3, non-cleavable transmembrane form of human TNF-alpha on CHO cells (mTNF-alpha-CHO) (human, UniProt P01375 1-233) (assay: cell-based or functional assay).
T3 sequence (P01375 whole entry): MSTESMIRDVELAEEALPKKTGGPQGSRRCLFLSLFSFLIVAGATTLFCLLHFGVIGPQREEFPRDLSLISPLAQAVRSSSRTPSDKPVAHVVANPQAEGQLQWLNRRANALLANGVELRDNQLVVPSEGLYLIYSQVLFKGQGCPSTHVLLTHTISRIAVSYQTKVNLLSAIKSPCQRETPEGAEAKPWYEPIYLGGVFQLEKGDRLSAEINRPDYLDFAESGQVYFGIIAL
With B1 the “Inhibition of mTNF-alpha-induced HEK-NF-kB SEAP Reporter (EC50 = nM)” value (from here on “Inhibition … (EC50 = nM)”) was 40 nM.
In the case of B5, the “Inhibition … (EC50 = nM)” value is reported as 34 nM.
For B6, the “Inhibition … (EC50 = nM)” value was 80 nM.

Target: T3, non-cleavable transmembrane form of …
Assay: cell-based or functional assay
Remark: another data set of the same source
B2 was tested, and the “Inhibition … (EC50 = nM)” value was 14.1 nM.
For B3, the “Inhibition … (EC50 = nM)” value was 16 nM.
With B4 the “Inhibition … (EC50 = nM)” value was 15.3 nM.
For B7, the “Inhibition … (EC50 = nM)” value was 23.9 nM.
With B9 the “Inhibition … (EC50 = nM)” value was 10.9 nM.
In the case of B10, the “Inhibition … (EC50 = nM)” value is reported as 174 nM.
With B11 the “Inhibition … (EC50 = nM)” value was 110 nM.

Target: T2, soluble cynomolgus monkey TNF-alpha
Assay: cell-based or functional assay
Remark: another data set of the same source
For B1, the “Inhibition of cynomolgus TNF-induced L929 cell cytotoxicity EC50” value was 1.5 nM.
With B5 the “Inhibition of cynomolgus TNF-induced L929 cell cytotoxicity EC50” value was 0.8 nM.
For B6, the “Inhibition of cynomolgus TNF-induced L929 cell cytotoxicity EC50” value was < 0.1 nM.
For B8, the “Inhibition of cynomolgus TNF-induced L929 cell cytotoxicity EC50” value was 1.3 nM.

Target: T1, soluble human TNF-alpha
Assay: cell-based or functional assay
Remark: another data set of the same source
B1 was tested, and the “Inhibition of human TNF-induced L929 cell cytotoxicity EC50” value was 6 nM.
In the case of B5, the “Inhibition of human TNF-induced L929 cell cytotoxicity EC50” value is reported as 1 nM.
For B6, the “Inhibition of human TNF-induced L929 cell cytotoxicity EC50” value was 0.2 nM.
With B8 the “Inhibition of human TNF-induced L929 cell cytotoxicity EC50” value was 2 nM.

Target: T3, non-cleavable transmembrane form of …
Assay: cell-based or functional assay
Remark: another data set of the same source
For B9, the “mTNF-alpha neutralisation EC50 (nM), NF-kB/SEAP HEK-293 cellular reporter assay” value (from here on “mTNF-alpha neutralisation EC50 (nM)”) was 8.72 nM.
In the case of B13, the “mTNF-alpha neutralisation EC50 (nM)” value is reported as 7.69 nM.
With B14 the “mTNF-alpha neutralisation EC50 (nM)” value was 4.71 nM.
With B15 the “mTNF-alpha neutralisation EC50 (nM)” value was 5.16 nM.

The binders below were run against T1, soluble human TNF-alpha (assay: competition ELISA: VHH mixed with h-TNF-alpha, binding to coated etanercept).
B16: binds.
B17: binds.
B18: binds.

The binders below were run against T1, soluble human TNF-alpha (assay: competition ELISA: VHH mixed with TNF-alpha 2.5 ng/ml, binding to coated hTNFR1).
Procedure: Plate was washed in PBST using a plate washer and blocked for 1 hour in 200 ul 1% BSA per well. A threefold dilution series beginning at 30 nM for each antibody was incubated with 2.5 ng/ml TNF-alpha for 1 hour, 50 ul/well of which was then added to the washed plate and incubated for 5 hours. The plate was washed and incubated with 50 ul/well of a 1/1000 dilution of biotinylated rabbit alpha-hTNF (Peprotech P31AB7) in 1% BSA and incubated overnight at 4 degrees C. The plate was washed and incubated with 50 ul/well of a 1/1000 dilution of mAvidin HRP in 1% BSA for 1 hour before a final wash and incubation with 100 ul/well TMB substrate. The reaction was stopped after 20 minutes with 50 ul/well 0.5 M H2504 and absorbance was read at 450 nm. EC50 values were calculated from ELISA data in GraphPad Prism.
B15 was tested, and the EC50 was 0.61 nM.

Target: T1, soluble human TNF-alpha
Assay: cell-based or functional assay
Remark: another data set of the same source
B15 was tested, and the “EC50 (nM), neutralisation of human soluble TNF-alpha-induced cytotoxicity in L929 cells” value was 0.127 nM.
